The record followed here is the supplement of paper PMC10567573.

The series is described as follows: protein stability index of a GFP-peptide fusion (GPS, HEK-293T) (PSI 1-6); higher = more stable.
[1] abbreviates: treatment: DMSO, c terminus: a fixed tail appended.
Where [2] appears, read: treatment: MLN4924 1 uM, 8 h, c terminus: a fixed tail appended.

± gives the standard deviation.
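Further: 24-mer peptide tiles fused after GFP, lentivirally expressed, FACS-sorted into six equal bins by GFP/DsRed ratio, decoded by Illumina sequencing, PSI is the read-weighted mean bin number.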

For the sequence CLIQKAQWTVGKLNCPFCGARLGG [RNF180], the protein stability index under setting [1] came to 2.15 ± 0.18 and the protein stability index under setting [2] is 2.79 ± 0.36.
For CLTCGKSFRQGMHLTRHQRTHTGE [ZNF263], in that order: 4.03 ± 0.23 and 3.98 ± 0.46.
Consider CMYRHALPPGFVLKKDKKKEEKED [ZC3H15], for which the protein stability index was 4.58 ± 0.21 under setting [1] and 4.67 ± 0.15 under setting [2].
On to CPASNECEITKRRRKACQACRFTK [ESRRA], for which the protein stability index under setting [1] is 3.94 ± 0.33 and the protein stability index under setting [2] stood at 4.26 ± 0.23.
In the case of CPTFRVSIARLEMGPDEYEEMEEE [FBXO3], the protein stability index by setting is: under setting [1], 4.7 ± 0.18; under setting [2], 5.07 ± 0.21.
In turn, CRGKKPSRIYGQAMAIINGSLYVF [KLHDC10] showed a protein stability index under setting [1] of 3.22 ± 0.66 and a protein stability index under setting [2] of 2.51 ± 0.73.
Take CRVFWWLGDRDRSRAALVCRKWNQ [FBXO39]: the protein stability index runs as follows: under setting [1], 2.46 ± 0.87; under setting [2], 2.06 ± 0.41.
For the sequence CSKVSELTERLKVLEAKMTMLTVI [EMID1], the protein stability index came out at 2.63 ± 0.73 under setting [1] and 2.46 ± 0.38 under setting [2].
Consider CSRQFPEFQERARKRIRTYLKSCR [NOL4L], for which the protein stability index reads like this: under setting [1], 3.25 ± 0.15; under setting [2], 3.36 ± 0.2.
In turn, CSTTDHPYKKPYMETSPSEEDSFY [TBX5] yielded a protein stability index under setting [1] of 4.34 ± 0.13 and a protein stability index under setting [2] of 4.31 ± 0.2.
CTDFCLRNLDGTLGYLLDKETLRL [ZER1] came in with a protein stability index under setting [1] of 2 ± 0.23 and a protein stability index under setting [2] of 2.13 ± 0.17.
In the case of CVSHLIIVTVHYGCASFIYLRPQS [OR10K2], the protein stability index stood at 2.99 ± 0.35 under setting [1] and 3.04 ± 0.46 under setting [2].
As for DAATTDELSSLGSDSEANGFAERR [TBC1D10A], the protein stability index was 5.47 ± 0.34 under setting [1] and 5.42 ± 0.23 under setting [2].
In the case of DALDSEGRDSEGPAEGEGRLGRCM [KCNG1], the protein stability index reads like this: under setting [1], 5.34 ± 0.28; under setting [2], 5.53 ± 0.21.
For DANTWRLYGGMNYRRLGGGVGVIK [KLHL20], in that order: 2.63 ± 0.24 and 2.54 ± 0.38.
Consider DCDTSSICEDSFDGRSLSKLNLCE [SCARA5], for which the protein stability index is, setting by setting: under setting [1], 4.84 ± 0.16; under setting [2], 5.05 ± 0.12.
For DCIFDKFECAWNGSDSVIMTGAYN [PPP2R2C], the protein stability index is 2.68 ± 0.3 under setting [1] and 2.74 ± 0.17 under setting [2].
For DDDDDDAQILPSRVQGGCYRFDSS [DRICH1], the protein stability index runs as follows: under setting [1], 4.65 ± 0.095; under setting [2], 4.88 ± 0.15.
In the case of DDIVSGRLPCSFVTLALLGSYTVQ [EPB41L3], the protein stability index is, setting by setting: under setting [1], 2.72 ± 0.44; under setting [2], 2.53 ± 0.53.
As for DEDFTFGAYQPTVVSSEGRQSRRQ [FBF1], the protein stability index runs as follows: under setting [1], 4.77 ± 0.24; under setting [2], 4.89 ± 0.3.
For DFLMCYSVAEGYYSHRETVNGSWY [CASP6], in that order: 2.88 ± 0.8 and 2.86 ± 0.79.
Consider DGENLKNEEETPSCMASLWTAPLV [CDC25A], for which the protein stability index is 4.484 ± 0.031 under setting [1] and 4.5 ± 0.19 under setting [2].
Consider DGKCAYRASYSDGKLKAPPKPCAG [MLH1], for which the protein stability index reads like this: under setting [1], 4.11 ± 0.3; under setting [2], 4.06 ± 0.056.
For the sequence DIAAMTNSLFIDRQKCMAHRTRYP [TEKT4], the protein stability index reads like this: under setting [1], 2.45 ± 0.24; under setting [2], 2.57 ± 0.19.
For the sequence DINSVRYYPSGDAFASGSDDATCR [GNB5], the protein stability index reads like this: under setting [1], 4.03 ± 0.047; under setting [2], 4.22 ± 0.16.
Consider DIVDRGSTNLGVNQAGFTLHSAIY [ADD1], for which the protein stability index is 2.36 ± 0.16 under setting [1] and 2.49 ± 0.45 under setting [2].
With DLKNVKSKIGSTDNIKYQPKGGQV [MAP2], the protein stability index runs as follows: under setting [1], 3.24 ± 0.16; under setting [2], 3.54 ± 0.32.
As to DLNIQLLKDGYRLDEIPDDEDLDL [FAM219A], the protein stability index is, setting by setting: under setting [1], 5.17 ± 0.16; under setting [2], 5.16 ± 0.079.
As for DLTASHDAALLEMENNHTVAITIL [MTUS2], the protein stability index under setting [1] was 2.86 ± 0.21 and the protein stability index under setting [2] came out at 2.85 ± 0.25.
Consider DLTSSSSDELSWIIELLEKDGMAF [ELF3], for which the protein stability index stood at 2.86 ± 0.34 under setting [1] and 3.19 ± 0.29 under setting [2].
As to DNLLQEMLLGGSPSDAPHAHHPLH [HNF4A], the protein stability index under setting [1] was 3.97 ± 0.49 and the protein stability index under setting [2] amounted to 4 ± 0.14.
Turning to DPDGEEGSSIPWNHLPDPEIFRQR [ZNF24], the protein stability index runs as follows: under setting [1], 4.97 ± 0.45; under setting [2], 5.02 ± 0.15.
For the sequence DPDGLVATYISEVHEHDGHLYLGS [APMAP], the protein stability index under setting [1] turned out to be 3.87 ± 0.18 and the protein stability index under setting [2] came to 3.94 ± 0.39.
Take DPHTKKALEAHCRADELASQDGR [PPP2R5C]: the protein stability index worked out at 5.16 ± 0.29 (treatment: DMSO, c terminus: native) and 5.3 ± 0.12 (treatment: MLN4924 1 uM, 8 h, c terminus: native).
In the case of DQDPSVLYFSIHRYEQGRFWPHLK [HDAC6], the protein stability index is, setting by setting: under setting [1], 2.25 ± 0.41; under setting [2], 2.16 ± 0.28.
In the case of DRLRDEELAELEDALRNLKCGSGA [TRADD], the protein stability index was determined as 4.95 ± 0.23 under setting [1] and 4.95 ± 0.24 under setting [2].
Sequence DSARADDARQLFVLAGAAEEGFMT [GNAI1] gave a protein stability index under setting [1] of 4.21 ± 0.22 and a protein stability index under setting [2] of 4.43 ± 0.077.
For DSCDRLTQSWSSQSSFNSLQRVPS [ETS1], in that order: 3.99 ± 0.24 and 4.07 ± 0.23.
For the sequence DSSFPPALAEGYRYPELDTPKLDC [TBX6], the protein stability index came to 4.7 ± 0.25 under setting [1] and 4.72 ± 0.17 under setting [2].
On the same counts, the results for DSYYRLVIHRALDREQVSSYNITV [PCDHGA10] are 2.87 ± 0.6 and 2.44 ± 0.55.
On the same counts, the results for DTHNTNNLDTEELCEYFSQHLGEY [NECAB1] are 4.41 ± 0.36 and 4.17 ± 0.33.
For DYIMDEDQSKLAGLLDLNNAILQL [ESRRG], the protein stability index worked out at 2.35 ± 0.25 under setting [1] and 2.6 ± 0.39 under setting [2].
With EAKEAKGSGYEKLGPSRDPDPLNI [RTP4], the protein stability index by setting is: under setting [1], 4.9 ± 0.21; under setting [2], 4.91 ± 0.18.
As to EATHEPAAARIRAQVPDTRWSRVG, the protein stability index was 4.62 ± 0.31 under setting [1] and 4.05 ± 0.41 under setting [2].
Take EAVRQEMRRQEPLPPPPPPSRGGN [WAS]: the protein stability index is 5.18 ± 0.21 under setting [1] and 5.19 ± 0.11 under setting [2].
In the case of ECPSMGTNEAACLLDNPLCADVLF [RHOBTB1], the protein stability index is 3.42 ± 0.34 under setting [1] and 3.94 ± 0.48 under setting [2].
In turn, ECRSSVTSDSEGAHVNTLHSGTKR [PHTF1] showed a protein stability index under setting [1] of 4.87 ± 0.32 and a protein stability index under setting [2] of 4.88 ± 0.17.
Regarding ECVASNNVGEISVSTRLTVLREDQ [PTPRD], the protein stability index is, setting by setting: under setting [1], 4.63 ± 0.19; under setting [2], 4.54 ± 0.15.
Consider EDAEAVEQLREALHEALLEYEAGR [ESRRA], for which the protein stability index by setting is: under setting [1], 4.03 ± 0.35; under setting [2], 4.26 ± 0.18.
For EDPYMMGRIACANVLSDLYAMGIT [SEPHS2], the protein stability index worked out at 2.39 ± 0.19 under setting [1] and 2.36 ± 0.18 under setting [2].
Turning to EDSINNSLVQLQASHQQQVLPPRQ [MYBL2], the protein stability index was 4.93 ± 0.14 under setting [1] and 4.72 ± 0.19 under setting [2].
As for EEAKGALLGTSGLKRRFSRLENRY [DAPK3], the protein stability index is 3.8 ± 0.29 under setting [1] and 3.96 ± 0.51 under setting [2].
Turning to EECPAHLLEDPLCADVILVLQERV [RHOBTB2], the protein stability index was 3.4 ± 0.42 under setting [1] and 3.47 ± 0.52 under setting [2].
For EEEDQHMKLSLGGSEMGLSSHLQS [KLHL13], the protein stability index by setting is: under setting [1], 4.95 ± 0.12; under setting [2], 4.91 ± 0.14.
Regarding EEEEGEEEELIRIFQEQQKKWQQY [FAM9B], the protein stability index reads like this: under setting [1], 4.02 ± 0.23; under setting [2], 4.13 ± 0.28.
For EEEKILRVKLEEDPDGEEGSSIPW [ZNF24], the protein stability index reads like this: under setting [1], 5.56 ± 0.13; under setting [2], 5.58 ± 0.26.
For the sequence EEFCEFVKSNTEQMREAFATAFSK [ZBED1], the protein stability index under setting [1] worked out at 3.76 ± 0.27 and the protein stability index under setting [2] was 3.98 ± 0.32.
For EEKMETKTESSGIETEPTVHHLPL [EPB41L3], in that order: 5.56 ± 0.37 and 5.49 ± 0.27.
As for EELMLVHSLEYIDLMETTQYMNEG [HDAC6], the protein stability index by setting is: under setting [1], 3.5 ± 0.2; under setting [2], 3.41 ± 0.3.
With EERVALNTEIEKLGRSIVSSPQGK [PKD2L1], the protein stability index came out at 5.06 ± 0.16 under setting [1] and 5.15 ± 0.32 under setting [2].
EETVTQDCLQLIADSETPTIQKGS [TNFSF13B]: the protein stability index is, setting by setting: under setting [1], 5.53 ± 0.36; under setting [2], 5.42 ± 0.14.
In the case of EFDLSPLNLDIGQVYKETRLFLDG [AASDHPPT], the protein stability index by setting is: under setting [1], 2.89 ± 0.28; under setting [2], 2.96 ± 0.27.
With EGENYQKGERGEDSSEEKHLEEPG [CHGB], the protein stability index was 5.63 ± 0.39 under setting [1] and 5.57 ± 0.32 under setting [2].
For EGGLYFERRPVAQSTDGARGKRGY [SPSB2], the protein stability index was found to be 4.55 ± 0.33 under setting [1] and 5.03 ± 0.11 under setting [2].
EGLAFLVSCPEGRADCASESACSS [PWWP2B]: the protein stability index is 3.6 ± 0.41 under setting [1] and 3.71 ± 0.24 under setting [2].
EGQRQAQEYEALLNIKVKLEAEIA [KRT18]: the protein stability index is, setting by setting: under setting [1], 3.94 ± 0.18; under setting [2], 4 ± 0.43.
For the sequence EHCGAVCFVKDNPQKSYFIRLYGL [WAS], the protein stability index worked out at 2.32 ± 0.35 under setting [1] and 2.31 ± 0.64 under setting [2].
With EHKGWYSWVLSMLYGFLLTFGFIT [CLPTM1], the protein stability index turned out to be 2.4 ± 0.56 under setting [1] and 2.62 ± 0.37 under setting [2].
In the case of EHKLKVVRDQISHCTVKLRQTTGL [TRIM9], the protein stability index came out at 3.35 ± 0.13 under setting [1] and 3.24 ± 0.25 under setting [2].
Turning to EHQNKRSPLHAAAEAGHVDICHML [EHMT1], the protein stability index reads like this: under setting [1], 3.98 ± 0.27; under setting [2], 3.94 ± 0.12.
With EIDEKVTDLVQFLLFKYQMKEPIT [MAGEA10], the protein stability index runs as follows: under setting [1], 2.35 ± 0.5; under setting [2], 1.75 ± 0.3.
Take EIEQYRLQREKEFKAKEAAALGSR [ATP6V1G1]: the protein stability index by setting is: under setting [1], 4.15 ± 0.21; under setting [2], 3.77 ± 0.047.
